# B1: hCHCHD2 WT expressed in CHCHD2-/- MEFs, Q9Y6H1 1-151 (natural protein)
# chain: MPRGSRSRTSRMAPPASRAPQMRAAPRPAPVAQPPAAAPPSAVGSSAAAPRQPGLMAQMATTAAGVAVGSAVGHTLGHAITGGFSGGSNAEPARPDITYQEPQGTQPAQQQQPCLYEIKQFLECAQNQGDIKLCEGFNEVLKQCRLANGLA
# Biological target: T1, hCHCHD2 WT expressed in CHCHD2-/- MEFs (human), Q9Y6H1
# T1 chain: B1 chain
# Experiment: cross-linking; hCHCHD2-expressing MEFs treated with or without 0.5 μg/ml DSP in PBS for 20 min at RT, lysed, western blot with anti-CHCHD2; ratio of monomer signals to total signals
# Settings: remark: other sources report otherwise
binder,measurement,value
B1,monomer form as share of total CHCHD2 signals (% of total CHCHD2 signals),< 50
same,stoichiometry N,2
